Laboratory results: paper PMC4070737

Biological target: T1, full-length human EB1 (human), Q15691
T1 chain: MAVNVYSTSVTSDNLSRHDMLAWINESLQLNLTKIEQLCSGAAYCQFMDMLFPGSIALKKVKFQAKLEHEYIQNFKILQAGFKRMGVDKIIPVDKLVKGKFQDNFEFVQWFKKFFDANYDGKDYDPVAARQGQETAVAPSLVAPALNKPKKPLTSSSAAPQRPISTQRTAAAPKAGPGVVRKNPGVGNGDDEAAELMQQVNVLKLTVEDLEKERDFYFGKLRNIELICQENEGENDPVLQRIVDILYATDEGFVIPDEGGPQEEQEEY
Assay: AUC
Settings: remark: other sources report otherwise

Kd: 88.5 nM | stoichiometry N: 2
B1: full-length human EB1, Q15691 1-268 (natural protein)
chain: T1 chain
